Test results taken from publication PMC2818508.

What was measured:
[1] = target: prenylated Rac2-GTP (UniProt P15153); experiment: co-sedimentation
[2] = target: Rac2 (prenylated Rac-GTP) (UniProt P15153); experiment: liposome co-sedimentation, WAVE2 quantified; conditions: reference: WAVE2 complex, not PP2A treated

Substance	% bound (of total WAVE2) [1] [%]	% bound (of total WAVE2; PIP3 liposomes + Rac-GTP) [1] [%]	other: % of total WAVE2 bound [2]
WAVE2 complex, PP2A treated (from UniProt Q9Y6W5 1-498; Q96F07 1-1278; Q9Y2A7 1-1128; Q8IZP0 1-508; Q8WUW1 1-75)	55	79	
WAVE2 (from UniProt Q9Y6W5) PP2A treated WAVE2 complex			same; reference 56
